Test results: publication doi:10.1101/2025.10.13.682046 (bioRxiv, 2025)

B1: CIP2A(331-560) (domain or fragment)
chain: not shown
B2: CIP2A(1-330), prey of the GST pull-down (domain or fragment)
chain: not shown
B3: GST-CIP2A(1-330) (domain or fragment)
chain: not shown

Tests used:
CIP2A(1-560)-V5 = CIP2A(1-560)-V5 (human, UniProt Q8TCG1 1-560); experiment: pull-down
GST-CIP2A(1-330) = biological target: B3; experiment: pull-down

Binder	binding result (CIP2A(1-560)-V5)	binding result (GST-CIP2A(1-330))
B1	binds	–
B2	–	binds
B3	binds	–
